The target of experiment [1] is T1, Recombinant human PD-L1 (Sino Biological, 10084-H08H) (human, UniProt Q9NZQ7 19-239).
T1 construct: Bought reagent
The experiment in a line: SPR (Biacore 8K), antibody captured on anti-human capture CM5 chip, antigen as analyte, 1:1 model. How it is done:
(§1) Methods: Anti-Human Capture-CM5 chip was prepared according to the amino coupling method of the Human Antibody Capture Kit. The chip was balanced at room temperature for 20-30 min, and then loaded into Biacore 8K instrument. The transient transduced protein was diluted to experimental working concentration with equilibration buffer. The antigen was diluted to 50 nM with equilibration buffer, and then diluted to seven concentration gradients with a 3-fold dilution, and two zero concentrations (equilibration buffer) and one repeat concentration (usually a repeat of the lowest concentration) were set. According to the order of antibody, antigen, and regeneration, cyclical experimental analysis were performed on 10 antigen concentrations (2 zero concentrations, 7 gradient concentrations and 1 repeat concentration), wherein the antigen injection flow rate was 30 μL/min, binding time was 120 seconds, and dissociation time was 600 seconds. After the analysis was completed, the corresponding analysis program was selected to analyze the data, confirming that there was no obvious reference binding. Kinetics, 1:1 binding modle was selected to fit the data, and the kinetic related parameters Ka, Kd and KD values of human-mouse chimeric antibody and humanized antibody were obtained.
On the technique in general: SPR reads the build-up and loss of mass on a sensor chip optically.

For experiment [2], the target named is T2, Recombinant human VEGF165 (Sino Biological, 11066-HNAH) (human, UniProt P15692-4 27-191).
T2 construct: Bought reagent
T2 sequence (P15692 other isoform, or with tags, fused parts or gaps): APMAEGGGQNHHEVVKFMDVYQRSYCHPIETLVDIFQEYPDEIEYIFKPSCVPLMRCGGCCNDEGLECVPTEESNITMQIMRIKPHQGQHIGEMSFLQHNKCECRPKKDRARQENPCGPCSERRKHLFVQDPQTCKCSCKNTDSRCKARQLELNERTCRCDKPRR
The experiment is described as above. How it is done:
as §1

Experiment [3] has as its target T1, Recombinant human PD-L1 (Sino …). Kind of experiment: SPR (Biacore 8K), same method as Example 2. Here is the method:
as §1

Experiment [4] deals with T2, Recombinant human VEGF165 (Sino …). The experiment in a line: SPR (Biacore 8K), same method as Example 2. Here is the method:
as §1

For experiment [5], the target named is T3, Egg white lysozyme (Sigma, L3790) (UniProt P00698 19-147).
T3 construct: Non-target molecule, amine-coupled to the CM5 chip
T3 sequence (P00698 19-147 limits assumed): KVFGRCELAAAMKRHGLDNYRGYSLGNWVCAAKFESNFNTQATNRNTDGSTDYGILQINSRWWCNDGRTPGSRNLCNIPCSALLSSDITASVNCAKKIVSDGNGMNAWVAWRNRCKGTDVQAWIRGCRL
The experiment in a line: SPR (Biacore 8K), same method as Example 3, lysozyme on CM5 chip. Here is the method:
(§2) Methods: Series S Sensor Chip CM5 was balanced at room temperature for 20-30 min, and loaded into Biacore 8K instrument. Egg white lysozyme and soybean trypsin inhibitor 1-S type were fixed to the CM5 chip, respectively, using the Amino Coupling Kit. The injection buffer was HBS-EP+1×. 4 balance cycles were setted. The rabbit polyclonal antibody against lysozyme, the antibody against trypsin inhibitor, and the humanized monoclonal antibody were diluted to 1000 nM with equilibration buffer, and the flow rate was set as 5 μL/min, and the injection channels were 1, 2 and 3. The Flow Cells were 1 and 2. The binding time was 10 min, and the dissociation time was 15 min. The regeneration flow rate was 50 μl/min, which is regenerated first with 0.85% phosphoric acid for 60 s, and then with 50 mM sodium hydroxide for 30 s. The results of non-specific adsorption of bispecific antibody HB0025 and non-target molecules are shown in Table 3, and the sensor diagram of the detection of non-specific adsorption of bispecific antibody and non-target molecules is shown in FIG. 3.

Experiment [6] has as its target T4, Soybean trypsin inhibitor 1-S type (Sigma, T-2327) (soybean, UniProt P01070 25-205).
T4 construct: Non-target molecule, amine-coupled to the CM5 chip
T4 sequence (looked up): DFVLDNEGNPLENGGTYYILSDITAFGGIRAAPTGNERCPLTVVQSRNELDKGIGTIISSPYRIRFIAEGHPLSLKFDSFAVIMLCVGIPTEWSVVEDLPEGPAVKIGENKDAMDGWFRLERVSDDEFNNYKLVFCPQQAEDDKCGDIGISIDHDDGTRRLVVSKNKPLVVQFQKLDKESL
Kind of experiment: SPR (Biacore 8K), same method as Example 3, soybean trypsin inhibitor on CM5 chip. How it is done:
as §2

T1 sequence (Q9NZQ7 19-239 limits assumed): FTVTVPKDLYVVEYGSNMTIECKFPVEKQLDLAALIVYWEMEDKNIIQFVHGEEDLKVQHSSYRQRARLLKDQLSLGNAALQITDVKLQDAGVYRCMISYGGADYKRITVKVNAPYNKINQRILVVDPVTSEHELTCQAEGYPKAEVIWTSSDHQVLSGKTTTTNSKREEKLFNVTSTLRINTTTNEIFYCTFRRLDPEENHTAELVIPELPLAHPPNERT

B1: bispecific antibody HB0025 (bifunctional antibody 900387) (bispecific antibody, human IgG1, kappa, L234A L235A)
heavy: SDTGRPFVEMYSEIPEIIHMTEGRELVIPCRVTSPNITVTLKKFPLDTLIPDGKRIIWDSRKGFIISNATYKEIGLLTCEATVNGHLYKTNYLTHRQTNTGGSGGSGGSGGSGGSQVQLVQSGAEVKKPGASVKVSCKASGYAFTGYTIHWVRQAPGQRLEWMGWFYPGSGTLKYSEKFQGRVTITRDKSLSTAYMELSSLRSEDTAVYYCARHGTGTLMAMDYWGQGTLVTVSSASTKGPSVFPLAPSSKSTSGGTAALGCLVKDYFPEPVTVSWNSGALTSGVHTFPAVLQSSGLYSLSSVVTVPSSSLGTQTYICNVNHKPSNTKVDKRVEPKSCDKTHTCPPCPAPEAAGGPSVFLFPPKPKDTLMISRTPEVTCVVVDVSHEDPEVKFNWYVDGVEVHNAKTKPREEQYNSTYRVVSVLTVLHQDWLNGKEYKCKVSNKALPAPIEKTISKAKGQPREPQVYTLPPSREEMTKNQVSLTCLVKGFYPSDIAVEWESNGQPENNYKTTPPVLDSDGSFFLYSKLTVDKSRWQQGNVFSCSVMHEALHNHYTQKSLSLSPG
light: DVVMTQTPLSLSVTPGQPASISCKSSQSLANSYGNTYLSWYLHKPGQSPQLLIYGISNRFSGVPDRFSGSGSGTDFTLKISRVEAEDVGVYYCLQGTHQPPTFGQGTKLEIKRTVAAPSVFIFPPSDEQLKSGTASVVCLLNNFYPREAKVQWKVDNALQSGNSQESVTEQDSKDSTYSLSSTLTLSKADYEKHKVYACEVTHQGLSSPVTKSFNRGEC
notes: symmetrical molecule with two H and two L chains; also called HB0025-22A3/9E3-ProA-EP; HB0025-22F5/4E6-ProA-EP
A word on the Kd: it is the free concentration of one partner at which half of the binding sites on the other are occupied at equilibrium, for simple one-to-one binding. In general, koff refers to the rate constant with which the complex falls apart. As usually defined, the kon is a measure of how fast the partners come together. Take B1: in experiment [1], the Kd was found to be 0.844 nM, the koff worked out at 0.000402 s⁻¹ and the kon worked out at 476000 M⁻¹ s⁻¹. Further, in experiment [2], the Kd is 0.0295 nM, the koff is 0.00028 s⁻¹ and the kon worked out at 9.5e+06 M⁻¹ s⁻¹.

B2: bispecific antibody 900388 (bispecific antibody, human IgG1, kappa, L234A L235A)
heavy: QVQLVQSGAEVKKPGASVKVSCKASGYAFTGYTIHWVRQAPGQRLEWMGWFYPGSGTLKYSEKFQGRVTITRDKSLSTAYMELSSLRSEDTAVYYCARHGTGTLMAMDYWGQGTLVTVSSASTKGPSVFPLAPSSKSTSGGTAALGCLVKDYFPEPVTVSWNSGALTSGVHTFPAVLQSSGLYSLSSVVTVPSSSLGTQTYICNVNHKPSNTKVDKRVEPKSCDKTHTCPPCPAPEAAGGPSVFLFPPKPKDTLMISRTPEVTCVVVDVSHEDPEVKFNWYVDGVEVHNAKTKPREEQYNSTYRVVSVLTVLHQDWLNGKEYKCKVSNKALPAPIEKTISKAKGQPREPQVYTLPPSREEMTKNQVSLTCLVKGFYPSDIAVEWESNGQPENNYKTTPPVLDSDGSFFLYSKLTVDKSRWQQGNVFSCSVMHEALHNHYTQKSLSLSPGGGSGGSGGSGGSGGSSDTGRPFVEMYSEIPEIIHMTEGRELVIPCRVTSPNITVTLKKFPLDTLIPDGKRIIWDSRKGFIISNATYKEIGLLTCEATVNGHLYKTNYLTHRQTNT
light: DVVMTQTPLSLSVTPGQPASISCKSSQSLANSYGNTYLSWYLHKPGQSPQLLIYGISNRFSGVPDRFSGSGSGTDFTLKISRVEAEDVGVYYCLQGTHQPPTFGQGTKLEIKRTVAAPSVFIFPPSDEQLKSGTASVVCLLNNFYPREAKVQWKVDNALQSGNSQESVTEQDSKDSTYSLSSTLTLSKADYEKHKVYACEVTHQGLSSPVTKSFNRGEC
For the molecule B2, the results for the Kd in experiment [3] and in experiment [4] were 0.824 nM and 0.0398 nM, respectively. For the same molecule, the koff in experiment [3] was determined as 0.000522 s⁻¹; in experiment [4] it was 0.00041 s⁻¹. Moreover, the kon in experiment [3] was 633000 M⁻¹ s⁻¹; in experiment [4], 1.03e+07 M⁻¹ s⁻¹. For the same molecule, the binding result in experiment [5] and in experiment [6] was “no binding” in each case.

The values are drawn from patent US20220002418A1 (HUABO BIOPHARM SHANGHAI, published 2022).
